# B1: ALM (A5-ML3.9) bispecific scFv (bispecific antibody)
# scFv: AMAQVQLVQSGGGLVKPGGSLRLSCAASGFSFNTYDMNWVRQAPGKGLEWVSSISSSSSYIYYADSVKGRFTISRDNAKNSLYLQMNSLRAEDTAVYYCARDGVATTPFDYWGQGTLVTVSSGGGGSGGGGSGGGGSQSVLTQPPSVSGAPGQRVTISCTGSSSNIGAGYDVHWYQQLPGTAPKLLIYGNSNRPSGVPDRFSGSKSGTSASLAITGLQAEDEADYYCQSYDSSLSALFGGGTKLTVLGNSGAGTSGSGASGEGSGSKLQVQLVQSGAEVKKPGESLKISCKGSGYSFTSYWIAWVRQMPGKGLEYMGLIYPGDSDTKYSPSFQGQVTISVDKSVSTAYLQWSSLKPSDSAVYFCARHDVGYCSSSNCAKWPEYFQHWGQGTLVTVSSGGGGSGGGGSGGGGSQSVLTQPPSVSAAPGQKVTISCSGSSSNIGNNYVSWYQQLPGTAPKLLIYDHTNRPAGVPDRFSGSKSGTSASLAISGFRSEDEADYYCASWDYTLSGWVFGGGTKLTVLGLEHHHHHH
# notes: Expressed in E. coli TG1 from pUC/ALM and purified by IMAC and size exclusion; also called A5/Linker/ML3.9 bs-scFv; ALM proteins
# Assays:
# [1] = biological target: T1, HER3 extracellular domain (UniProt P21860 20-643, limits assumed); assay: surface plasmon resonance (BIAcore), HER3 extracellular domain on the chip, ALM injected; concentrations not given
# T1 construct: extracellular domain; also called ErbB3
# T1 sequence (P21860 20-643 limits assumed): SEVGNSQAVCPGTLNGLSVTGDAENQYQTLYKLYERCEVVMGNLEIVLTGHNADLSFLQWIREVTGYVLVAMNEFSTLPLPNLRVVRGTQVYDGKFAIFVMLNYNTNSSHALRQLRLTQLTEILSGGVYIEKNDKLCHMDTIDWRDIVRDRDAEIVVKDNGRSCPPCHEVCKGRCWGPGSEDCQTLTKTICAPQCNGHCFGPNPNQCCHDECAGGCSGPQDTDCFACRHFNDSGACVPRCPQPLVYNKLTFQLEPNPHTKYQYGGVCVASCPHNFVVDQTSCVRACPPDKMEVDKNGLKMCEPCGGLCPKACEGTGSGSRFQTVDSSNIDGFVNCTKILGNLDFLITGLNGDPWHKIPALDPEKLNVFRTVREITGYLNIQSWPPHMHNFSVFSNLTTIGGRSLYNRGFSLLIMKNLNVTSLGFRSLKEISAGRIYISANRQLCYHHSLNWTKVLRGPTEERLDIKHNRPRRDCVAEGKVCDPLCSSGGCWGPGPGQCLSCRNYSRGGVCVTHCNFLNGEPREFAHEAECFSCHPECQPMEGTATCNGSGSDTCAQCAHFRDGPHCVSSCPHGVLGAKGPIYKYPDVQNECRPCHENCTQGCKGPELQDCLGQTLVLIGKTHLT
# [2] = biological target: T2, HER2/neu extracellular domain (UniProt P04626 23-652, limits assumed); assay: surface plasmon resonance (BIAcore), HER2/neu extracellular domain on the chip, ALM injected; concentrations not given
# T2 construct: extracellular domain; also called ErbB2
binder,measurement,setting,value
B1,binding result,[1],binds
same,binding result,[2],binds

# Reference: patent publication US20100196265A1 (University of California, published 2010)
